In the assay the target is ap2a_human TFAP2A (UniProt P05549).
ap2a_human TFAP2A, sequence (P05549 whole entry): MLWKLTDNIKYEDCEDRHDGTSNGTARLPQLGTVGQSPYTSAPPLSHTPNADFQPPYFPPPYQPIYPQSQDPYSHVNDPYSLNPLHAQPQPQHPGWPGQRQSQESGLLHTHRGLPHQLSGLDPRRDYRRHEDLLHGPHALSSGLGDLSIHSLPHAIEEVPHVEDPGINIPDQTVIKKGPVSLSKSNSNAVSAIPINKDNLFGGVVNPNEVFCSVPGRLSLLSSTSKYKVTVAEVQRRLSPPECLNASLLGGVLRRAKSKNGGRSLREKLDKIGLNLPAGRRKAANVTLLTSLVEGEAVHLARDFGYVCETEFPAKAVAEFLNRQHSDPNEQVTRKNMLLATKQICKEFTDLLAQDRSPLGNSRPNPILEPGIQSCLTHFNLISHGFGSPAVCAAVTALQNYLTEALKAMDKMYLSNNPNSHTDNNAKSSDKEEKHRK

With “Histone acetyltransferase p300 (Homo sapiens), Q09472 D1399Y”, the “effect of a mutation on the interaction” value is reported as “disrupting interaction”.
